The values that follow come from patent US20100196385A1.

Assay [1] concerns the target full length cynomolgus monkey DLL4 (cynomolgus monkey). The experiment in a line: FMAT, hybridoma supernatant, 293T cells with cynomolgus DLL4.
Assay [2] addresses DLL4 extracellular domain (R&D systems, catalog #1506-D4/CF) (UniProt Q9NR61). The assay is described as follows: cell-based or functional assay.
Assay [3] concerns the target full length cynomolgus monkey DLL4 (cynomolgus monkey). The experiment in a line: FACS titration, HEK293 cells with cynomolgus DLL4.
The target is the same in assay [4]. The experiment in a line: FACS competition vs Notch1/Fc, HEK293 cells with cynomolgus DLL4.

Sequence of DLL4 extracellular domain (R&D systems, catalog #1506-D4/CF) (Q9NR61 27-529 limits assumed): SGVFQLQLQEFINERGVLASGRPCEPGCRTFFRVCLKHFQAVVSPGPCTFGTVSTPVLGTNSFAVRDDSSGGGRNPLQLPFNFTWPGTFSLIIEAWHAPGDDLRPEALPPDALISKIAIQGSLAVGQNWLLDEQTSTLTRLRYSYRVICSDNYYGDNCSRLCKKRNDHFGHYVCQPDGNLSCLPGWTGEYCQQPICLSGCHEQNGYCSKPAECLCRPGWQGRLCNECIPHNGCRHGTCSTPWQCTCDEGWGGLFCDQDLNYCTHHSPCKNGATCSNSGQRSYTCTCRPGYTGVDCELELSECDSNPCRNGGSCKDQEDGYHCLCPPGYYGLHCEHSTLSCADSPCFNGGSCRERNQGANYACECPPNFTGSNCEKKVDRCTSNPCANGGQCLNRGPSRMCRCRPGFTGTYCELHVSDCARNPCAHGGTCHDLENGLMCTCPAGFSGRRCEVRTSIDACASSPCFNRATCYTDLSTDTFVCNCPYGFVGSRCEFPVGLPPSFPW

B1: 1D4 (antibody, IgG4, V domains shown)
VH: QLQLQESGPGLVKPSETLSLTCTVSGGSISSSSYYWGWIRQPPGKGLEWIGSFYYSRSTYYNPSLKSRVTISVDTSKNQFSLKLSSVTAADTAVHYCARGSIAVPDAFDIWGQGTMVTVSS
VL: SYELTQPPSVSVSPGQTASITCSGDKLGDKFACWYQQKPGHSPVLVVYQDNKRPSGIPERFSGSNSGNSATLTISGTQAMDEADYYCQAWDSNTAVFGGGTKLTVL
In the case of B1, in assay [1], the Count was 103, the FL1 was 11700 and the FL1 x count was determined as 1.21e+06.

B2: 3A7 (antibody, IgG4, V domains shown)
VH: EVQVVESGGGLVQPGGSLRLSCEASGFTFSNYWMIWVRQAPGKGLEWVASIKEDGSEKYYVDSVKGRFTISRDNAKSSLYLQMNSLRAEDTAVYYCVRDWELRGHYYYHGMDVWGQGTTVTVSS
VL: DIQMTQSPSSLSASVGDRVTITCRASLDIRNDLGWFLQKPGKAPKRLIYAASSLQSGVPSRFSGSGSGTEFTLTINSLQPEDFATYYCLQHRNYPFTFGPGTKVDFK
In the case of B2, in assay [1], the Count came out at 121, the FL1 was determined as 9960 and the FL1 x count came out at 1.2e+06.

B3: 4B3 (antibody, IgG4, V domains shown)
VH: QVQLVQSGAEVRKSGASVKVSCKASGYSFTTYDINWVRQATGQGLEWMGWMNPNSGYTDYAQKFQGRVTLTRNMSIDTAYMELSSLRSEDTAVYYCARAYYYDSSAYYLFDYWGQGTLVTVSS
VL: DIQMTQSPSSLSASVGDRVTITCRASQGISNYLAWFQQKPGKAPKSLIYAASSLQSGVPSKFSGSGSGTDFTLTISSLQPEDFATYFCQQYISYPLTFGGGTKVEI
In assay [1], B3 yielded a Count of 97, an FL1 of 12600 and an FL1 x count of 1.22e+06.

B4: 20G8 (antibody, IgG4, V domains shown)
VH: QVQLVQSGAEVKKPGASVKVSCKASGYTFTSYGISWVRQAPGQGLEWMGWISVYNGNTNYAQKLQGRVTMTTDTSTSTAYMEVRSLRSDDTAVYYCARDRVPRIPRTTEAFDIWGRGTMVTVCS
VL: QSVLTQPPSASGTPGQRVTISCSGSSSNIGSYYVYWYQQLPGTAPKLLIYRDNQRPSGVPDRFSGSKSGTSASLAIRGLRSDDEADYYCAAWDDSLSGHWVFGGGTKLTVL
For the molecule B4, in assay [2], the % inhibition 1 µg/ml, AVERAGE (HUVEC proliferation on coated DLL4) is 85%; the % inhibition 1 µg/ml, N = 1 (HUVEC proliferation on coated DLL4) was 94%; the % inhibition 1 µg/ml, N = 2 (HUVEC proliferation on coated DLL4) is 75%; the % inhibition 10 µg/ml, AVERAGE (HUVEC proliferation on coated DLL4) came to 98%. In addition, in assay [2], the % inhibition 10 µg/ml, N = 1 (HUVEC proliferation on coated DLL4) came out at 103% and the % inhibition 10 µg/ml, N = 2 (HUVEC proliferation on coated DLL4) was determined as 93%. In assay [1], this molecule displayed a Count of 128, an FL1 of 11200 and an FL1 x count of 1.44e+06.

B5: 4B4 (antibody, IgG4, V domains shown)
VH: QVLLIQSGAEVKKPGASVQVSCKASGYTFTNYGVIWVRQAPGQGLEYMGWISAYNGNTNYAQKLQDRVTMTSDTSTTTAYMELRSLRSDDTAVYYCARELGSSFDYWGQGTLVTVSS
VL: SYELTQPPSVSVSPGQTARITCSGDALPKKYAYWYQQKSGQAPVLVIYEDIKRPSGIPERFSGSSSGTMATLTISGAQVEDEADYYCFSTDNSGDHSVFGGGTKLTVL
For the molecule B5, in assay [1], the Count was 117, the FL1 is 12300 and the FL1 x count turned out to be 1.04e+09.

B6: 4B4 IgG1 (antibody, V domains shown)
VH: QVLLIQSGAEVKKPGASVQVSCKASGYTFTNYGVIWVRQAPGQGLEYMGWISAYNGNTNYAQKLQDRVTMTSDTSTTTAYMELRSLRSDDTAVYYCARELGSSFDYWGQGTLVTVSS
VL: SYELTQPPSVSVSPGQTARITCSGDALPKKYAYWYQQKSGQAPVLVIYEDIKRPSGIPERFSGSSSGTMATLTISGAQVEDEADYYCFSTDNSGDHSVFGGGTKLTVL
As for B6, the Kd in assay [3] was determined as 0.081 nM. Besides, the IC50 in assay [4] came to 0.5 nM.

B7: 12A1 (antibody, IgG4, V domains shown)
VH: QVQLVQSGAEVKRPGASVKVSCKASGYTFTSYGITWVRQAPGQGLEYMGWISTYNGNTDYAQKFQGRVTMTADISTSTAYMELRSLRSDDTAVYYCARERGSYFDYWGQGTLVTVSS
VL: SYELTQPPSVSVSPGQTARITCSGDTLPKKYAYWYQQKSGQAPVLVIYEDIKRPSGIPERFSGSSSGTMATLTISGAQVEDEADYYCFSTDSGGNHKFGGGTKLTVL
In assay [1], B7 displayed a Count of 106, an FL1 of 12900 and an FL1 x count of 1.37e+06.

B8: 2H10 (antibody, IgG4, V domains shown)
VH: QVQLVESGGGVVQPGRSLRLSCAASGFTFSRHGMHWVRQAPGKGLEWVAVVWFDGSNIYYADSVKGRFTISRDNSKNTLYLQMNSLRAEDTAMYYCARDSRIAAADYWGQGTLVTVSS
VL: SYELTQPPSVSVSPGQTVSITCSGDKLGDKYVCWYQQKPGQSPVLVIYQESKRPSGIPERFSGSSSGNTATLTISGTQAMDEADYYCQTWDSSLVVFGGGTKLTVL
In assay [1], B8 yielded a Count of 103, an FL1 of 13100 and an FL1 x count of 1.35e+06.

B9: 17F3 (antibody, IgG2, V domains shown)
VH: QVQLVQSGAEVKKPGASVKVSCKASGYTFTNYGISWVRQAPGQGLEWMGWINAYNGNTNYAQNLQGRVTMTTDTSTNTAYMELRSLRSDDTAVYYCARVAPAAFFDYWDQGTLVTVSS
VL: SYELTQPPSVSVSPGQTASITCSGDKLGDKYVCWYQQKPGQSPVLVIYQDNKRPSGIPERFSGSNSGNTATLIISGTQAMDEADYYCQAWDSSTVFGGGTKLTVL
For B9, in assay [1], the Count was 120, the FL1 worked out at 10700 and the FL1 x count amounted to 1.29e+06.

B10: 9G8 (antibody, IgG4, V domains shown)
VH: QLQLQESGPGLVKPSETLSLSCTVSGGSISSSSSYWGLIRQPPGKGLEWIGSIYYSGSTYYSPSLKSRVSISVDTSKNQFSLKLSSVTAADTAVYFCARQGYGGHPDVFDIWGQGTMVTVSS
VL: SSELTQSPSVSVSPGQTARITCSGDKLGDVYVCWYQQKTGQSPVLVIYEDTKRPSGIPERFSGSNSGNTATLTISGTQVMDEADYYCQAWDSTTAVIFGGGTKLTVL
As to B10, in assay [1], the Count was 120, the FL1 was 11700 and the FL1 x count was 1.41e+06.
